Results on 13 molecules are retold here after article PMC5828407 (Veterinary Research, 2018).

Where no end group is shown, it is not given here. The star is where a group is joined. FITC = O=C1OC2(c3ccc(O)cc3Oc3cc(O)ccc32)c2ccc(NC(=S)*)cc21; Ahx = NCCCCCC(=O)O

B1: APN∆1 (401–963 AA) (domain or fragment)
chain: DLWLNEGFASYVEYLGADHAEPTWNLKDLIVPGDVYRVMAVDALASSHPLTTPAEEVNTPAQISEMFDSISYSKGASVIRMLSNFLTEDLFKEGLASYLHAFAYQNTTYLDLWEHLQKAVDAQTSIRLPDTVRAIMDRWTLQMGFPVITVDTKTGNISQKHFLLDSESNVTRSSAFDYLWIVPISSIKNGVMQDHYWLRDVSQAQNDLFKTASDDWVLLNVNVTGYFQVNYDEDNWRMIQHQLQTNLSVIPVINRAQVIYDSFNLATAHMVPVTLALDNTLFLNGEKEYMPWQAALSSLSYFSLMFDRSEVYGPMKKYLRKQVEPLFQHFETLTKNWTERPENLMDQYSEINAISTACSNGLPQCENLAKTLFDQWMSDPENNPIHPNLRSTIYCNAIAQGGQDQWDFAWGQLQQAQLVNEADKLRSALACSNEVWLLNRYLGYTLNPDLIRKQDATSTINSIASNVIGQPLAWDFVQSNWKKLFQDYGGGSFSFSNLIQGVTRRFSSEFELQQLEQFKKNNMDVGFGSGTRALEQALEKTKANIKWVKENKEVVLNWFIEHS
B2: APN∆5 (332–963 AA) (domain or fragment)
chain: PLPKSDQIALPDFNAGAMENWGLVTYRENALLFDPQSSSISNKERVVTVIAHELAHQWFGNLVTLAWWNDLWLNEGFASYVEYLGADHAEPTWNLKDLIVPGDVYRVMAVDALASSHPLTTPAEEVNTPAQISEMFDSISYSKGASVIRMLSNFLTEDLFKEGLASYLHAFAYQNTTYLDLWEHLQKAVDAQTSIRLPDTVRAIMDRWTLQMGFPVITVDTKTGNISQKHFLLDSESNVTRSSAFDYLWIVPISSIKNGVMQDHYWLRDVSQAQNDLFKTASDDWVLLNVNVTGYFQVNYDEDNWRMIQHQLQTNLSVIPVINRAQVIYDSFNLATAHMVPVTLALDNTLFLNGEKEYMPWQAALSSLSYFSLMFDRSEVYGPMKKYLRKQVEPLFQHFETLTKNWTERPENLMDQYSEINAISTACSNGLPQCENLAKTLFDQWMSDPENNPIHPNLRSTIYCNAIAQGGQDQWDFAWGQLQQAQLVNEADKLRSALACSNEVWLLNRYLGYTLNPDLIRKQDATSTINSIASNVIGQPLAWDFVQSNWKKLFQDYGGGSFSFSNLIQGVTRRFSSEFELQQLEQFKKNNMDVGFGSGTRALEQALEKTKANIKWVKENKEVVLNWFIEHS

The target in one experiment is T1, porcine aminopeptidase N (APN), His-tagged whole protein (porcine, UniProt P15145 1-963).
T1 sequence: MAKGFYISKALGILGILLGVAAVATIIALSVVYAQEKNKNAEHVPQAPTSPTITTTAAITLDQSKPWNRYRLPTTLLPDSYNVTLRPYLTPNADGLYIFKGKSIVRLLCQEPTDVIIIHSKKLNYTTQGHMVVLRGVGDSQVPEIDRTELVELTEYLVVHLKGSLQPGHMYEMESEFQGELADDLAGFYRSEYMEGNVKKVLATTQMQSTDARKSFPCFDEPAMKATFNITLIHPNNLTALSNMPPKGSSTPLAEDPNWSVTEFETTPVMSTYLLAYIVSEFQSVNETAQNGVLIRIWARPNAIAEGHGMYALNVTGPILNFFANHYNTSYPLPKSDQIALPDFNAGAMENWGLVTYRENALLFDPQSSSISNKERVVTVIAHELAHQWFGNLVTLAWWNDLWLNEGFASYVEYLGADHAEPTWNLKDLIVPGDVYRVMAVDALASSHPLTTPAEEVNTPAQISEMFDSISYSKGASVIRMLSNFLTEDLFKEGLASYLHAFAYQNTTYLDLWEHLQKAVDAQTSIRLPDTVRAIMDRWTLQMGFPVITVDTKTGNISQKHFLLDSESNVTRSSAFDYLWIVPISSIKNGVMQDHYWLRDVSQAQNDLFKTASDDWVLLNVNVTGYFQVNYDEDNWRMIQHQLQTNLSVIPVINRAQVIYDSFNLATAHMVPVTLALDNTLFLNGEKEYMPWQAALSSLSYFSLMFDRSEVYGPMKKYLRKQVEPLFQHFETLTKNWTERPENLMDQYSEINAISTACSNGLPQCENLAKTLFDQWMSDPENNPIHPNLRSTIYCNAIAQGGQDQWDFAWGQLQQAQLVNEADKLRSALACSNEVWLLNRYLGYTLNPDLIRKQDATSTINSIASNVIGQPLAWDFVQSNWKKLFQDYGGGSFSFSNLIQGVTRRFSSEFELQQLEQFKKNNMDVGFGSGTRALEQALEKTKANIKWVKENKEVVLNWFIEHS
The experiment in a line: ELISA; APN protein coated on plates, incubated with FaeG peptides, fusion FaeG proteins or F4 fimbriae; absorbance at 450 nm. The following applies: both partners purified. In general terms: ELISA stands for enzyme-linked immunosorbent assay.
Consider {FITC-Ahx}-TKLFGSLSRNDILGQIQRV [peptide F4ac 200–218], for which the binding result is “binds”.
On the same count and under the same terms, as for {FITC-Ahx}-NASYAGVFGKGGV [peptide F4ab 148–160], the entry is “binds”.
For {FITC-Ahx}-ARTELFGSLSKNDILGQIQ [peptide F4ad 200–218], the binding result is on record as “binds”.

Another experiment has as its target GST-tagged FaeG fusion protein of F4ac (Escherichia coli, UniProt P14190 22-283). The experiment can be described thus: ELISA; indirect ELISA: APN and its five truncated proteins coated at 100 μg/mL in carbonate-bicarbonate buffer pH 9.6, incubated with 100 μg/mL FaeG fusion protein, detected with anti-F4 monoclonal antibody. The following applies: both partners purified.
As to B1, the binding result was “binds”.
For the molecule B2, the binding result was “binds”.

Another experiment addresses T1, porcine aminopeptidase N (APN), …. The experiment in a line: peptide or protein array; FaeG membrane: 205 spots of 13-mers offset by 3 on cellulose membrane, incubated with 1 mg/mL purified soluble APN, blotted with polyclonal antibodies against APN; intensity > 30% of the strongest spot positive. Conditions: both partners purified.
Take NASYAGVLGRGGV [FaeG membrane spot 116 (149–161 AA), F4ac]: the binding result was “binds”.
On the same count and under the same terms, in the case of LRAIFYGGLTTTV [FaeG membrane spot 59 (175–187 AA), F4ab] it was “binds”; in that of ASYAGALGRGGVT [FaeG membrane spot 172 (149–161 AA), F4ad], “binds”; in that of TKLFGSLSRNDILGQIQRV [FaeG membrane spots 133–135 (200–218 AA), F4ac], “binds”.
The same measure, in the same setting: in the case of ARTELFGSLSKNDILGQIQ [FaeG membrane spots 189–191 (200–218 AA), F4ad] it was “binds”; in that of HAIFYGGLPTNVK [FaeG membrane spot 181 (176–188 AA), F4ad], “binds”; in that of NASYAGVFGKGGV [FaeG membrane spot 50 (148–160 AA), F4ab], “binds”.
LSSIFYGGLPRGS [FaeG membrane spot 125 (176–188 AA), F4ac]: the binding result is given as “binds”.
